From publication PMC5148612 come the findings set out here.

For assay [1], the target named is Atg5 K57E,N84E-TAP (S. cerevisiae) (UniProt Q12380). Nature of the assay: co-IP; as a14 but with plasmid Atg16 E102A instead of Atg16 wild type (Figure 5F).
Assay [2] shares this target. Nature of the assay: co-IP; lysates of atg16∆ atg19∆ S. cerevisiae with integrated Atg5-TAP or Atg5 K57E,N84E-TAP, plasmid 6xmyc-Atg19 and plasmid Atg16 wild type; IgG beads (Figure 5F).

Sequence of Atg5 K57E,N84E-TAP (S. cerevisiae) (Q12380 whole entry K57E/N84E): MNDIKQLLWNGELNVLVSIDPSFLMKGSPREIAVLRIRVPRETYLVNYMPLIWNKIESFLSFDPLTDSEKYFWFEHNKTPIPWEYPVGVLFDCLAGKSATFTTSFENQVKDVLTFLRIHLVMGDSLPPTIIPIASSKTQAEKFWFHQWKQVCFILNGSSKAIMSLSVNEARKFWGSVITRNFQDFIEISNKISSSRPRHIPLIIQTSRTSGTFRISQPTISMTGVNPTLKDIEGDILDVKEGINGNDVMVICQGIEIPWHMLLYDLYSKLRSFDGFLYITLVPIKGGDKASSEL

With “6xmyc-Atg19 (from UniProt P35193 1-415) (natural protein)”, the 6xmyc-Atg19 pulled down, percent of the sample with wild type Atg5 and Atg16 was 2.9% in assay [1] and 13% in assay [2].
